# Test system: Escherichia coli TOP10
# Experiment: shrunken log2 fold change of peptide-encoding DNA abundance (4.5 h post-induction vs induction); higher = less antimicrobial activity (less host growth inhibition)
# Conditions: time post-induction: 4.5 h; library: site-saturation at positions 5, 18, 19, 20
# 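Further: peptides expressed intracellularly from a pBAD plasmid library in pooled LB shake-flask culture, induced with 0.3% L-arabinose, DNA abundance read by NGS, three biological replicates, DESeq2 with apeglm shrinkage.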
row,Sequence,shrunken log2 fold change
1,RRIRGRPPRLPRPRPRPIDFPRP,-0.0475
2,RRIRVRPPRLPRPRPRPESVPRP,-0.204
3,RRIRWRPPRLPRPRPRPSYNPRP,-0.343
4,RRIRFRPPRLPRPRPRPVWSPRP,0.175
5,RRIRFRPPRLPRPRPRPSNSPRP,-0.723
6,RRIRCRPPRLPRPRPRPPLAPRP,0.79
7,RRIRYRPPRLPRPRPRPYMLPRP,-1.3
8,RRIRGRPPRLPRPRPRPAPMPRP,1.1
9,RRIRVRPPRLPRPRPRPEVIPRP,-0.595
10,RRIRFRPPRLPRPRPRPKVGPRP,-0.01
11,RRIRQRPPRLPRPRPRPTRGPRP,0.287
12,RRIRNRPPRLPRPRPRPWYEPRP,-0.0232
13,RRIRHRPPRLPRPRPRPLDKPRP,-0.0374
14,RRIRNRPPRLPRPRPRPTMTPRP,0.149
15,RRIRPRPPRLPRPRPRPSRTPRP,0.198
16,RRIRERPPRLPRPRPRPLCIPRP,-0.895
17,RRIRSRPPRLPRPRPRPFHRPRP,-0.154
18,RRIRQRPPRLPRPRPRPWPLPRP,-0.0625
19,RRIRDRPPRLPRPRPRPWGWPRP,0.226
20,RRIRDRPPRLPRPRPRPCGYPRP,0.0572
21,RRIRCRPPRLPRPRPRPILFPRP,-0.405
22,RRIRHRPPRLPRPRPRPFSKPRP,0.0242

row,Sequence,shrunken log2 fold change
1,RRIRGRPPRLPRPRPRPHSGPRP,-0.0558
2,RRIRKRPPRLPRPRPRPGHIPRP,-0.0657
3,RRIRERPPRLPRPRPRPPAMPRP,-0.186
4,RRIRSRPPRLPRPRPRPQCLPRP,-0.208
5,RRIRPRPPRLPRPRPRPTIQPRP,-0.101
6,RRIRKRPPRLPRPRPRPGIKPRP,0.34
7,RRIRARPPRLPRPRPRPSVHPRP,-0.0906
8,RRIRYRPPRLPRPRPRPQCSPRP,-0.73
9,RRIRHRPPRLPRPRPRPVMDPRP,0.153
10,RRIRCRPPRLPRPRPRPSKYPRP,-0.635
11,RRIRMRPPRLPRPRPRPLGIPRP,0.0188
12,RRIRSRPPRLPRPRPRPTWEPRP,0.187
13,RRIRTRPPRLPRPRPRPVWSPRP,-0.00993
14,RRIRARPPRLPRPRPRPCLRPRP,0.0978
15,RRIRARPPRLPRPRPRPYIFPRP,-0.277
16,RRIRNRPPRLPRPRPRPLYCPRP,-0.793
17,RRIRIRPPRLPRPRPRPSELPRP,-0.186
18,RRIRYRPPRLPRPRPRPRWQPRP,0.033
19,RRIRYRPPRLPRPRPRPQPMPRP,-0.159
20,RRIRCRPPRLPRPRPRPPPPPRP,1.55
21,RRIRYRPPRLPRPRPRPKCCPRP,0.013
22,RRIRMRPPRLPRPRPRPYLQPRP,-0.0699

row,Sequence,shrunken log2 fold change
1,RRIRCRPPRLPRPRPRPITYPRP,-0.362
2,RRIRARPPRLPRPRPRPNLWPRP,0.467
3,RRIRWRPPRLPRPRPRPMDPPRP,0.0622
4,RRIRYRPPRLPRPRPRPWTKPRP,-0.319
5,RRIRPRPPRLPRPRPRPMQWPRP,0.169
6,RRIRIRPPRLPRPRPRPDFGPRP,-0.196
7,RRIRGRPPRLPRPRPRPEAYPRP,0.0504
8,RRIRNRPPRLPRPRPRPLTIPRP,-0.389
9,RRIRRRPPRLPRPRPRPEAEPRP,0.853
10,RRIRPRPPRLPRPRPRPEEWPRP,-0.0099
11,RRIRLRPPRLPRPRPRPRMLPRP,-0.0478
12,RRIRTRPPRLPRPRPRPTIQPRP,-0.0327
13,RRIRCRPPRLPRPRPRPNRIPRP,-0.111
14,RRIRIRPPRLPRPRPRPEHKPRP,-0.199
15,RRIRDRPPRLPRPRPRPHLSPRP,0.0479
16,RRIRLRPPRLPRPRPRPYCNPRP,-0.963
17,RRIRNRPPRLPRPRPRPEYAPRP,-0.175
18,RRIRLRPPRLPRPRPRPMALPRP,-0.0125
19,RRIRRRPPRLPRPRPRPNSWPRP,-0.0571
20,RRIRERPPRLPRPRPRPAWLPRP,0.471
21,RRIRNRPPRLPRPRPRPMCMPRP,-0.106
22,RRIRGRPPRLPRPRPRPQYSPRP,0.0802

row,Sequence,shrunken log2 fold change
1,RRIRLRPPRLPRPRPRPKQIPRP,0.0389
2,RRIRDRPPRLPRPRPRPPWQPRP,0.475
3,RRIRGRPPRLPRPRPRPVVWPRP,1.26
4,RRIRLRPPRLPRPRPRPPPHPRP,1.13
5,RRIRWRPPRLPRPRPRPSNCPRP,-0.0121
6,RRIRTRPPRLPRPRPRPKRNPRP,0.366
7,RRIRIRPPRLPRPRPRPDMGPRP,-0.0742
8,RRIRDRPPRLPRPRPRPMVDPRP,-0.0109
9,RRIRYRPPRLPRPRPRPVQLPRP,-0.779
10,RRIRDRPPRLPRPRPRPWTRPRP,-0.231
11,RRIRDRPPRLPRPRPRPSLLPRP,0.05
12,RRIRFRPPRLPRPRPRPHVCPRP,-0.0299
13,RRIRMRPPRLPRPRPRPQHLPRP,-0.344
14,RRIRTRPPRLPRPRPRPGFCPRP,0.106
15,RRIRCRPPRLPRPRPRPMVCPRP,-0.143
16,RRIRVRPPRLPRPRPRPYEIPRP,-0.14
17,RRIRNRPPRLPRPRPRPGDNPRP,0.0229
18,RRIRWRPPRLPRPRPRPCWFPRP,0.0945
19,RRIRARPPRLPRPRPRPCKEPRP,0.000506
20,RRIRARPPRLPRPRPRPNATPRP,1.97
21,RRIRVRPPRLPRPRPRPRQIPRP,0.0436
22,RRIRMRPPRLPRPRPRPDFQPRP,-0.0477

row,Sequence,shrunken log2 fold change
1,RRIRSRPPRLPRPRPRPCCWPRP,-0.0914
2,RRIRCRPPRLPRPRPRPKTKPRP,0.177
3,RRIRFRPPRLPRPRPRPQMGPRP,-0.209
4,RRIRMRPPRLPRPRPRPMIDPRP,-0.0842
5,RRIRQRPPRLPRPRPRPHSGPRP,-0.01
6,RRIRSRPPRLPRPRPRPHKHPRP,-0.411
7,RRIRRRPPRLPRPRPRPTTFPRP,3.05
8,RRIRERPPRLPRPRPRPKFHPRP,-0.554
9,RRIRERPPRLPRPRPRPGLRPRP,0.0748
10,RRIRDRPPRLPRPRPRPALQPRP,0.671
11,RRIRYRPPRLPRPRPRPRKLPRP,-0.14
12,RRIRQRPPRLPRPRPRPNMNPRP,-0.528
13,RRIRRRPPRLPRPRPRPFFIPRP,-0.0305
14,RRIRIRPPRLPRPRPRPNMMPRP,-0.298
15,RRIRIRPPRLPRPRPRPVFVPRP,-0.397
16,RRIRIRPPRLPRPRPRPRLTPRP,-0.0559
17,RRIRKRPPRLPRPRPRPPCIPRP,-0.141
18,RRIRFRPPRLPRPRPRPAMKPRP,-0.345
19,RRIRMRPPRLPRPRPRPSIWPRP,-0.255
20,RRIRPRPPRLPRPRPRPRWMPRP,0.412
21,RRIRGRPPRLPRPRPRPEARPRP,1.54
